Source: the DeepSol protein solubility set

Assay: soluble on expression in E. coli; label from the status in PepcDB or PDB records

Soluble on expression in E. coli, not soluble:
MGSDKIHHHHHHMKNLLGYSEDYLKERKGYITAKEICNQPKLWRETYEIILSQREKLKSFLDNFAKKPNAKIVITGAGSSAFVGNSVVSYLNAKENIKIEAIATTDIVSHPFYYLKKDEPTLLISCARSGNSPESTAAVTLAEKIVDDISHLIITCNSEGKLALHAKRNYNSFLLLMPEESNDKGFAMTGSFSTMLLSCLLIFNLDKLESIGKQIESISMQGEKVLVNNVELMKKIVGEKFKRTVYLGAANAFGLAKESALKVLELTAGKIATLYDTPLGFRHGPKSIIDDETLIVIFFSNDTYAREYEYDLLKEVYSQNGNHKVLAISEYEDKLIEDNSDYFIAINKEEQEYEDDSFLSLDYLLNAQMYAFINSMELGIGPDNPCPTGEVNRVVKGVIIHDYR
MGSDKIHHHHHHMKQFWNWKNYQIAWQVEETSNDSGIAIVLIHGFGACKEHWRFNQKTISSIAPCYALDLIGFGDSSKPNSQIPYEKKTYQNFNYCFDNWSQLVYDFCNEIVKKPVLLIGNSIGGVIALNTSKKLSQKALGVILIDCAQRTMDDKRLAEQSLLMRFLRPVIKTFVRQRLLSSNIFNIAAQPKFIAKILKVAYPSRNNVDEELIDTLFKPTQSKGAPEAFRGFINLFDDYLAPNLLKEMNTSVHLIWGEKDPWEPVKEAQKWFKTFECIKSLDVISDAGHCPHDEMPEKVNPILIKIIQEAI
MGSDKIHHHHHHMKQKNYHSCTVGQIVAGNFDTTKVFSRYHIDFCCHGNTPFAEACRNRGIDPEAVAHELNELQENTVSNAPDFAGWPIDLLIDYVLKIHHRGIRAKGPQIEALLTKVTEAHSKNHPELLQVQALFRDSLLDLENHLSKEENVLFPYVYEMFQAKEEGLKVAKFHCGTILYPIEVMEDEHNHEGERFEKISSLTNGFTAPEDACASFRLVLQQLKQFEEALHEHIHLENNIIFPRALELEKKEAI
MGSDKIHHHHHHMKQNLTLILMNEAVREGWREWMEKVRKVLPQTDAERPVTWIAAERLAQENGRMVRLVELLREHRPVLSYRVKEEAGLLILVAYHRHGSSSDFLLETAEAYFRERDCGGFLFLCRMQASINAYDEYPHLNVLCNRLAGLLFRFRRERASEYRKGIPPMFSGADLQEVEKYLPHLRGCSFREEIALALPKVKNVEELARECAMSVNTLGRRFKEELNTTPHRWLTEQRKAHVTSLLADTDMPLQEIADVCGFATPSYLWDFCKKHLKATPAEIREIARCARTV
MGSDKIHHHHHHMKQSEQEEPLTGGNVSDVSRIGETVRREQKPESLRVHRVLQHLEQKGFEGSPRYLGIDPQGREILSFIEGEAGNYPLQPYMQSDRVLEETARLLRSYHEAVADFPIPTDWQPLDGTPEPLELICHNDFAVYNVIFQNERPVGIIDFEVAAPGPRIWDIAYTMYTFVPLSRHQMTEDGEPAHYNPVNDQERIRRRVLLFLSAYGKAELKDEMYETVLLRVEALIKTIHRRAAEGDDAFQRMIDDGHVTHYEQEIDFLKREGADWFR
MGSDKIHHHHHHMKQSKKIIITCAVTGSIHTPTMSPYLPITPEEIVKEGVAAAEAGAAMLHLHARDPLNGRPSQDPDLFMRFLPQLKERTDAILNITTGGGLGMSLDERLAPARAARPEVASMNMGSLNFNISQAAAKFDTFKFDWERPYLAGTRDFILSNTFSQIERGMTELGASGTRFEFECYDVGHLYNLAHFVDRKLVEPPFFLQCVFGILGGIGADPENLLHMRTIADRLFGQDYYLSVLAAGRHQMPFVTMSAILGGNVRVGLEDSLYSGKGQLATSNAEQVRKIRRIIEELSLDIATPDEARAMLKTKGANETSF
MGSDKIHHHHHHMKRPLKVLVVGAKFGELYLNSFLLEQPGLQLAGLLANGSPRARALANAFGIALYTDIEQLPDDLDIACVVVRSAVVGGAGGQLTESLLRRGLHVIQEHPVHPDELVRHQQLATRMGCQYIVNSFYPHTEAGRCWAGTAQRISRLLEGRKPNLAQLTTSRQLLYSGLDLLFQALGCDLARQVSVSLLDGDDDFHTLSLNLPDSRVLLRLQRWMAADDPDLHSLVMHQLNLAWPSGYLSLDATYGPVNWTPALHAEAHDDDRQTLYTSNADYLQHATAMPLHPAASHWRSAHEIEGPAGVGWLLQQLLAVLQGRPRADGLQADYQLAVARLWQDILRCAGPAEQRMASAPLFIDAAQLRAEG
MGSDKIHHHHHHMKSILLFMIFVVCQLEGKKFSQDNFKVDYNYYLRKQDLHIIKTQNDLSNSWYLPPQKAPKEHSWVDFAKKYLNMMDYLGTYFLPFYHSFTPIFQWYHPNINPYQRNEFKFQISFRVPVFRHILWTKGTLYLAYTQTDWFQIYNDPQSAPMRMMNFMPELIYVYPINFKPFGGKIGNFSEIWIGWQHISNGVGGAQCYQPFNKEGNPENQFPGQPVIVKDYNGQKDVRWGGCRSVSAGQRPVFRLVWEKGGLKIMVAYWPYVPYDQSNPNLIDYMGYGNAKIDYRRGRHHFELQLYDIFTQYWRYDRWHGAFRLGYTYRINPFVGIYAQWFNGYGDGLYEYDVFSNRIGVGIRLNP
MGSDKIHHHHHHMKSTTVPSEGGGGLDATTRTSVQPHPLHGPDATWQETNCYIDLWIELLHAWGLDPRAALPFTVAQDFEGDHFTFFKYPQADLETLYGTVVQEMAVYDTLQAHVVTQVERGHTVLVEVDSYYLPDTHATAYKREHVKTTVAIDNIDPHAQRLSYFHSLGYHSAHDEDYRGLMRLSRELSGNGNILFPYAECAKRVRPALTMPAMADASVALMRQHLDRLPAINPVTLWRREFDAHMDTLLARDDAYFHLYTFNLPRQLGANFEMLHHWLRWLDEQGRGNPLAARAAESAATIAAEAKVLQFRLARAVARRRADPCTQSLDVLECCYDKTVEGLLSAFGDTRLAAA
MGSDKIHHHHHHMKSVQDRLSQTTNPSPKSYQQLYQEIVSDPEVAAFIKKEGLTQQEITLSISKFLEYISQRDLFVKQDEAYIAKGYQPVLVMNEGYADVSYLETEELVEYRRLEAIKNRIQLINMPASLKNVTVADIDKSDENRVEVMLAIADFVKRFEEKPKGLYIYGNFGIGKSYLMAYLANLLSKTHLQSTTMLHYPTFVVDIKNAIKDGSVKERIDEIKMAQVLVLDDIGAEQHSPWVRDDVLQVILQYRMQENLPTFFTSNFSFDDLERHFASGKSGDETWQAKRVMERIRYLARDLHLKGNNRR
MGSDKIHHHHHHMKSWVENVTIKKYEDRSGLTGLKQGPLVWTEVFLREVNRQSNTGILHFWPMDQTVILGMMDSQVAQLDKGLASIGQAGYSPIIRSLGGLAVVADDGILNVTLIFPNPSGHKVDLRESYQVMVDLIAQALSDFPFEVVSGEVATSYCPGTYDLSIKGRKFAGLAQRIYQEAIAISAYISVSGNQVKRGQVVADFYAASFAPQEVSDRFPQVNPNSMANLSDLVAQDLTMEDMKIRIEHVLIENGAFLTTFYPSSDNMADFMALGKTIKQSMEKYGI
MGSDKIHHHHHHMKTIMYLHAGAEMYGSDKVLLQLVTGLDKKQFKPIVVLPEHGPLEKALETNDIQTEVVAYPILRRKYFNPKGIFNYASGYFKAEKVLANLAIKYHVDLIHVNTLAVLEGITLKKRIKKPLIWHVHEILLSPKFMWKLTAYLSAKYADKIVVVSNATGEHLKKAGYAKENQIVTIYNGINIPKGLENSDFRQEFDIPKNAFVFGHVGRINAWKGQEDFLKASLKLMSNYSKVHVLFSGNAYKGEEWREEKLKKEINESGFSDRIHYLGFQHEIRKVFNTMNVFVSSSIRPDPFPMVTLEAMANSKPIVSYDHGGPSELIVNAKTGYLVQPHNIDDLSLKMSMLINPKLESKFGVVGRKRVLSEFSETKFLQNFSFLYGDM
MGSDKIHHHHHHMKTLSIVWAVVGLMLIGGCDQTPQAQSTQSKSMANVVGTTSANQDDLAFTPIVPGYKFEFPRDHLAHNNFRQEWWYLTANLTTETGEQLGAQWTQFRVALKPTDLQTIAPQVTDATPKSESTWATQQLYLAHSALTSSNAHLAHEKWSRRHSEFAEVKLDPYQIRLDNWHWQSETNALFPATLTVENPDFSYQLKLNSQAPLQYQGANGYSLKSRDGQVASYYYSQPFIEISGEINRNGKMERVTGQGWLDREWSSQFLTKTQQGWDWFALRLNDGSTLMLFQLRDQSPAESAKNAPISAFYSARRMFADGTGRNINSTDNPNDIQMTPLQWQHTVNGDYPVSWQVKIPSENIDITITPLNPNSAMPLSTPYWEGPVQLSGSHTGTGYMELTGY
MGSDKIHHHHHHMKTQYFSDVDETVITTTLSNGLRLQVVPRPAYHKSYAIMTTDYGSIDTQFAPDGKQMVTYPAGIAHFLEHKLFEKEDHDAFDLFGETGASANAFTSATKTSFLFSTTTQLTKNLQILLDFVQTPFFSKASVAKEQGIIGSEIQMYQDDPGWRGYAGLLENLFPNHPAHVDVAGTVASIAQITPEMLYTIHRVFYQPSNMTLIVVGNIDADAIMAFVAANQAAKQFPAPQAIVRGVHADLQTDDIVPYRQLEMPISRPKTLVGIKGQVAIPMTAEGWRYQLTIRLLLEVLFGDSSQLYQDWYDRGLIDDSFDFDFTNQRSFSYGLVGGDTDDPHALSDAIKHVLLNAATQPDLTRDRVALIKRASLGKYYAGLNGLNGVANQLSALSFGQASLFDFPEILSSITLADLQAMIDQVFQAKALTVLDMIPEAD
MGSDKIHHHHHHMKTRDRIVHASLELFNLNGEPGITTNHIAAHLGMSPGNLYYHFRNKEDIIRSIFDLYQQHLEKGFQPYENKQVDMALLMGYFDALFYTLWQFRFMYANLVIILGRDEELKQKYLGIQQQVLARSSNILQQLKKDKVLDIADDEITPLADTIRMIAGFWISNQLTYSGAANITKSSLYEGLLRVLMLFKAYSTSDSFETFKHLEQHYRTLALEDDQ
MGSDKIHHHHHHMKTSKKWIAHFEANALHQRINWDLFPAITEAETASVLSSLQAWQLGETSDGAHLIHASTLYASHIGDLDYIDAVKLFIKEEQKHGNNLGRYLDVIDKPRIKKDWGDSLFRKIRYFNTNMEIWTLAVITVESAAQVFYQCLKNATECTLLRQICTDILIDEAYHIDFQTERMTILFNKKSVLSRCLSRIMYPVFFFSTSLLVWSAHKKLFKAGGIDFKKYMNKMKYKYFKTLHRIALVCSRKSTLIHSALH
MGSDKIHHHHHHMKTSQLIRKIQEKIDEAMSRLNDLESMEIKTEEYLDTFLALVNNTYKKAEIYNTLVDQWNLLMKQGDEIKRSIEEFKPEYVHHLTEMMKYDGINLLYLRENEHLRAIGIDEIAARTFQEFLKEEELAERSEAFNQAVRKTREQIQQYHMFHYYVSLTDNELKVDENYRLAGNYYRYSIDFFDKNFPYKSIGISRKLENVPELLEKFFRLREKLEGEDPEGDRVRKTLERLYSLSSFDTVEEFNAIIDEWTDLYEAYKQEDPFKTNVLSYSYINKDGRTVQKTYPTYDFLRWLSQRNRKNQEYILNNYLRRITDDPTREGYEIRDPSVVLENRLVEATIKALPNYKSGIMSEIDSLKKMSRMKRKRKEEEIQKKIMTDPFAAVGAKVPEEIKYWLLRRLDVTHPDLYEEWNRITSELQAYLEEVVKQ
MGSDKIHHHHHHMKVAYVIGGLPFGGVESWLLDLARHVSKTSDFECRVFNVSGTGVKMPEYISSGVDVVCAGNSLDSIATHRIDTVLRLRSQLVEYAPDIIHTLHFSGDYCGRLASIGLGVPVVTHLRNIKCERKLRRRLANKLLSFFTDMYLSVSRAVADMVADDHNIAKRPSRVIYNAVDPQKLAVEPHDLTAMYGVSGRIVVGVGRYVGQKNFDLLLRALRLVLDEGHDISVVLVGEGGERPHLERLIRELSLEGHAVLTGYRQDVPRFLRASYALAMPSDFEGLPITHLEAMFCGLPAIVSRHVPSLEIAREASLVCKRSPESIAQCIIRLLEDEKLHSTLSNTGSRIASEHTMDLYIKTLKGIYDELASRGKEI
